In IntAct's records for PubMed 26711270:

B1: Protein ecdysoneless homolog (Homo sapiens), O95905 (parent)
chain: MEETMKLATMEDTVEYCLFLIPDESRDSDKHKEILQKYIERIITRFAPMLVPYIWQNQPFNLKYKPGKGGVPAHMFGVTKFGDNIEDEWFIVYVIKQITKEFPELVARIEDNDGEFLLIEAADFLPKWLDPENSTNRVFFCHGELCIIPAPRKSGAESWLPTTPPTIPQALNIITAHSEKILASESIRAAVNRRIRGYPEKIQASLHRAHCFLPAGIVAVLKQRPRLVAAAVQAFYLRDPIDLRACRVFKTFLPETRIMTSVTFTKCLYAQLVQQRFVPDRRSGYRLPPPSDPQYRAHELGMKLAHGFEILCSKCSPHFSDCKKSLVTASPLWASFLESLKKNDYFKGLIEGSAQYRERLEMAENYFQLSVDWPESSLAMSPGEEILTLLQTIPFDIEDLKKEAANLPPEDDDQWLDLSPDQLDQLLQEAVGKKESESVSKEEKEQNYDLTEVSESMKAFISKVSTHKGAELPREPSEAPITFDADSFLNYFDKILGPRPNESDSDDLDDEDFECLDSDDDLDFETHEPGEEASLKGTLDNLKSYMAQMDQELAHTCISKSFTTRNQVEPVSQTTDNNSDEEDSGTGESVMAPVDVDLNLVSNILESYSSQAGLAGPASNLLQSMGVQLPDNTDHRPTSKPTKN

Variants of: B1
Settings: with pihd1_human PIH1D1, Q9NWS0
pihd1_human PIH1D1, Q9NWS0, sequence (Q9NWS0 whole entry): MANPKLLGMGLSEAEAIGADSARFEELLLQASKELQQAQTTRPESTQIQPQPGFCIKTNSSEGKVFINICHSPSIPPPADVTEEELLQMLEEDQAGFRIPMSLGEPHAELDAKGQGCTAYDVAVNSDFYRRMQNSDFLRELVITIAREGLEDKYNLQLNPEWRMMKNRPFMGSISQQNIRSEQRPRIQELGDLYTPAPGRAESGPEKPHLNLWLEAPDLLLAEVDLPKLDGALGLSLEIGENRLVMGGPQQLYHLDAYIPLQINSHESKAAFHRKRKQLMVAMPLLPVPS
S503D;S505D;S518D;S572D;S579D;S584D was tested, and the “effect of a mutation on the interaction” value was “disrupting interaction”. With S503A;S505A;S518A the “effect of a mutation on the interaction” value was “disrupting interaction”. For S503A;S505A;S518A;S572A;S579A;S584A, the “effect of a mutation on the interaction” value was “disrupting interaction”.
